Data as given in patent US20170342144A1 (Sanofi, published 2017).

T1: human TGFβ3 (human, UniProt P10600 301-412)
T1 sequence: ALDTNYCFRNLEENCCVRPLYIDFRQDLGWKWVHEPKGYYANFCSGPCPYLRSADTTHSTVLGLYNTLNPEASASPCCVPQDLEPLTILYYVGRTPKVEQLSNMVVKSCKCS

T2: human TGFβ2 (human, UniProt P61812 303-414)
T2 construct: also called TGFβ2 homodimer
T2 sequence: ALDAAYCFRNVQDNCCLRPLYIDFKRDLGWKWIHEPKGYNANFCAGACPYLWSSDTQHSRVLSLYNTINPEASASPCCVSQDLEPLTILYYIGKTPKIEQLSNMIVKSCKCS


Experiments:
human TGFβ1 [1] = target: T3, human TGFβ1 (human, UniProt P01137 279-390); test: cell-based or functional assay
T3 construct: also called TGFβ1 homodimer

human TGFβ3 [2] = target: T1, human TGFβ3; test: SPR (Biacore 3000), TGFβ3 amine-coupled to the chip, GC1008 IgG as analyte, 1:1 model, average of more than 25 assays
Procedure: (§1) Additionally, the TGFβ isoform binding affinity of the GC1008 antibody was measured using a Biacore® 3000 (GE Healthcare) instrument. TGFβ1 and TGFβ2, produced in-house, were diluted to ˜1 μg/mL in 10 mM acetate, pH 4.5, and TGFβ3 (R&D Systems) was diluted to ˜2 μg/mL in 10 mM acetate, pH 4.0. Flowcells 2, 3, and 4 of a CMS sensor chip were covalently immobilized with 50 to 100 RU of TGFβ1, TGFβ2, and TGFβ3, respectively, using the standard amine coupling kit from GE Healthcare. Flowcell 1 was used as a control surface. […] The surface was regenerated with two 30 sec injections of 40 mM HCl at 75 μL/min. The sensorgrams were fit using a 1:1 binding model after subtraction of buffer and control flowcell refractive index changes with the BIA Evaluation Software Kit (GE Healthcare). The KD's shown in TABLE 6 are an average of more than 25 independent assays.

human TGFβ1 [3] = target: T3, human TGFβ1; test: SPR (Biacore 3000), TGFβ1 amine-coupled to the chip, GC1008 IgG as analyte, 1:1 model, average of more than 25 assays
Procedure: as §1

human TGFβ2 [4] = target: T2, human TGFβ2; test: SPR (Biacore 3000), TGFβ2 amine-coupled to the chip, GC1008 IgG as analyte, 1:1 model, average of more than 25 assays
Procedure: as §1

human TGFβ3 [5] = target: T1, human TGFβ3; test: Biacore, top 2 concentrations only (90, 30 nM), 1:1 global fit, vs wt GC1008
Procedure: (§2) In FIG. 6C, seventeen mutants were selected and scaled up to produce sufficient amount of purified protein for KD (equilibrium constant=kd/ka) analysis by Biacore. Multiple concentrations (90, 30, 10 and 3.33 nM) were used in duplicate on the 150 RU level TGFβ1, 2, and 3 immobilized surfaces. KD was calculated using global curve fitting analysis for a 1-to-1 Langmuir binding model. The experimental data from all four concentrations were used for calculation except for I54N and I54R mutants, where only the top 2 concentrations were used. The fold changes in KD were compared to the fold changes in kd (off rate) presented in FIG. 6B, and a heat map was generated for visualization. Similar fold changes were observed from the two data sets, confirming the validity of using kd as a parameter for screening of 155 single mutants as shown in FIG. 6B.

human TGFβ1 [6] = target: T3, human TGFβ1; test: as above
Procedure: as §2

human TGFβ2 [7] = target: T2, human TGFβ2; test: as above
Procedure: as §2

human TGFβ3 [8] = target: T1, human TGFβ3; test: Biacore off-rate vs wt GC1008, 50 nM
Summary of the method: (§3)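 Surface plasmon resonance on a Biacore 3000 measured how fast purified antibody variants dissociated from TGFβ isoforms immobilized at about 100 RU. Variants carried single heavy- or light-chain substitutions and were produced by transient Expi293F transfection with Protein A cleanup. Samples at 50 nM were tested in duplicate, and each variant kd was divided by the wild-type control kd to give fold change.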

human TGFβ1 [9] = target: T3, human TGFβ1; test: Biacore off-rate vs wt GC1008, 50 nM
Summary of the method: as §3

human TGFβ2 [10] = target: T2, human TGFβ2; test: Biacore off-rate vs wt GC1008, 50 nM
Summary of the method: as §3

human TGFβ3 [11] = target: T1, human TGFβ3; test: Biacore off-rate vs wt GC1008
From the text: (§4) Plasmids encoding either the GC1008 heavy chain or light chain were used as a template in PCR-based mutagenesis reactions. Mutations to the encoding DNA were made to create 155 single amino acid substitutions of the encoded heavy chain amino acid sequence and one single amino acid substitution of the encoded light chain amino acid sequence. A QuikChange® Lightning Site-Directed Mutagenesis kit (Agilent Technologies, Santa Clara Calif.) was used according to the manufacturer's instructions to create DNA mutations using a set of forward and reverse primers, either designed for a specific amino acid or for all 20 amino acids with a degenerate codon (NNK). After sequencing confirmation, identified mutant DNA was paired with a wild-type light or heavy chain DNA for transfection into an Expi293F™ host cell suspension (Life Techonologies Corp., Grand Island, N.Y.). At 4 days post-transfection, conditioned media (1 mL) was harvested and purified using a 1 mL Protein A PhyTip® column (PhyNexus, Inc., San Jose, Calif.) and a PureSpeed™ 12-channel pipette (Rainin Instrument LLC, Oakland, Calif.). Purified variant antibody samples were analyzed in duplicate on a Biacore® 3000 (GE Healthcare) at 50 nM concentrations, using the 100 RU level TGFβ1, 2, and 3 immobilized surfaces. The off-rate (kd) of the variants was divided by the kd of the wild-type control to obtain the fold change in the kd. […] A heat map was generated to visualize the results. Variants that completely lost affinity for TGFβ were shown in red without numbers.

human TGFβ1 [12] = target: T3, human TGFβ1; test: Biacore off-rate vs wt GC1008
From the text: as §4

human TGFβ2 [13] = target: T2, human TGFβ2; test: Biacore off-rate vs wt GC1008
From the text: as §4

T3 sequence (P01137 279-390 limits assumed): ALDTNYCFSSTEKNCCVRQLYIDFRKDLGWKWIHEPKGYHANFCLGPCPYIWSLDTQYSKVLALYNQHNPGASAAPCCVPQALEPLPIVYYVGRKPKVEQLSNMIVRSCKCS

Row | % neutralization in MLEC proliferation assay at 91 pM antibody (human TGFβ1 [1]) [%] | Kd (human TGFβ3 [2]) [nM] | Kd (human TGFβ1 [3]) [nM] | Kd (human TGFβ2 [4]) [nM] | KD mutant/KD wt (human TGFβ3 [5]) | KD mutant/KD wt (human TGFβ1 [6]) | KD mutant/KD wt (human TGFβ2 [7]) | kd var/kd wt (human TGFβ3 [8]) | kd var/kd wt (human TGFβ1 [9]) | kd var/kd wt (human TGFβ2 [10]) | kd mutant/kd wt (human TGFβ3 [11]) | kd mutant/kd wt (human TGFβ1 [12]) | kd mutant/kd wt (human TGFβ2 [13]) | Molecule
1 | – | – | – | – | 11.4 | 11 | 5.3 | 4.8 | 7.6 | 5.2 | 4.8 | 7.6 | 5.2 | I54R (antibody, V domains shown, GC1008 IgG4 variant) VH: QVQLVQSGAEVKKPGSSVKVSCKASGYTFSSNVISWVRQAPGQGLEWMGGVIPRVDIANYAQRFKGRVTITADESTSTTYMELSSLRSEDTAVYYCASTLGLVLDAMDYWGQGTLVTVSS VL: ETVLTQSPGTLSLSPGERATLSCRASQSLGSSYLAWYQQKPGQAPRLLIYGASSRAPGIPDRFSGSGSGTDFTLTISRLEPEDFAVYYCQQYADSPITFGQGTRLEIK
2 | – | – | – | – | 13.1 | 7 | 4.5 | 4.3 | 4.9 | 2.4 | 4.3 | 4.9 | 2.4 | I54N (antibody, V domains shown, GC1008 IgG4 variant) VH: QVQLVQSGAEVKKPGSSVKVSCKASGYTFSSNVISWVRQAPGQGLEWMGGVIPNVDIANYAQRFKGRVTITADESTSTTYMELSSLRSEDTAVYYCASTLGLVLDAMDYWGQGTLVTVSS VL: ETVLTQSPGTLSLSPGERATLSCRASQSLGSSYLAWYQQKPGQAPRLLIYGASSRAPGIPDRFSGSGSGTDFTLTISRLEPEDFAVYYCQQYADSPITFGQGTRLEIK

More lines, now with the values behind:

Row | Molecule | % neutralization in MLEC proliferation assay at 91 pM antibody (human TGFβ1 [1]) [%] | Kd (human TGFβ3 [2]) [nM] | Kd (human TGFβ1 [3]) [nM] | Kd (human TGFβ2 [4]) [nM] | KD mutant/KD wt (human TGFβ3 [5]) | KD mutant/KD wt (human TGFβ1 [6]) | KD mutant/KD wt (human TGFβ2 [7]) | kd var/kd wt (human TGFβ3 [8]) | kd var/kd wt (human TGFβ1 [9]) | kd var/kd wt (human TGFβ2 [10]) | kd mutant/kd wt (human TGFβ3 [11]) | kd mutant/kd wt (human TGFβ1 [12]) | kd mutant/kd wt (human TGFβ2 [13])
3 | 1D11.16 (antibody) | 12 | – | – | – | – | – | – | – | – | – | – | – | –
4 | GC1008 (antibody, human IgG4, V domains shown, also called GC1008 antibody; wild-type control) VH: QVQLVQSGAEVKKPGSSVKVSCKASGYTFSSNVISWVRQAPGQGLEWMGGVIPIVDIANYAQRFKGRVTITADESTSTTYMELSSLRSEDTAVYYCASTLGLVLDAMDYWGQGTLVTVSS VL: ETVLTQSPGTLSLSPGERATLSCRASQSLGSSYLAWYQQKPGQAPRLLIYGASSRAPGIPDRFSGSGSGTDFTLTISRLEPEDFAVYYCQQYADSPITFGQGTRLEIK | – | 2 | 1.7 | 3 | – | – | – | – | – | – | – | – | –
